First the molecules themselves.
T1: human calcitonin receptor (human, UniProt P30988 25-474)
T1 sequence (looked up): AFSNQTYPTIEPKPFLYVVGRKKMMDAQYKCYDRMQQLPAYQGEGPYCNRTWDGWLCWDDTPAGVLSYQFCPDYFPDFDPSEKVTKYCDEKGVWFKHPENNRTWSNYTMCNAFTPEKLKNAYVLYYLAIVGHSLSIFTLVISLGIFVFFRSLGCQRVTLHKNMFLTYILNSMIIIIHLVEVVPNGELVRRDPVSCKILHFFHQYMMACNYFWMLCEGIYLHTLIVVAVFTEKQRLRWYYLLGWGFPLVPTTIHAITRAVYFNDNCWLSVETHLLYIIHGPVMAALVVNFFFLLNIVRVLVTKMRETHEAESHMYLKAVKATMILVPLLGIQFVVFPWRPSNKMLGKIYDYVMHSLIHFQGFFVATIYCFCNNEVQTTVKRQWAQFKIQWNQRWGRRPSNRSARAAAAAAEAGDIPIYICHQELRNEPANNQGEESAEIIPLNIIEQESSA

B1: N^ε1-[(4S)-4-carboxy-4-(19-carboxynonadecanoylamino)butanoyl]-[His14,Arg17,Pro21,Pro27,Pro31]-h-amylin (peptide)
peptide: K([γGlu-C20 diacid])CNTATCATQRLAHFLRHSSPNFGAIPSSTPVGSNTY-NH2
modifications: disulfide 2-7; N-terminus assumed
SMILES: CC[C@H](C)[C@H](NC(=O)[C@H](C)NC(=O)CNC(=O)[C@H](Cc1ccccc1)NC(=O)[C@H](CC(N)=O)NC(=O)[C@@H]1CCCN1C(=O)[C@H](CO)NC(=O)[C@H](CO)NC(=O)[C@H](Cc1c[nH]cn1)NC(=O)[C@H](CCCNC(=N)N)NC(=O)[C@H](CC(C)C)NC(=O)[C@H](Cc1ccccc1)NC(=O)[C@H](Cc1c[nH]cn1)NC(=O)[C@H](C)NC(=O)[C@H](CC(C)C)NC(=O)[C@H](CCCNC(=N)N)NC(=O)[C@H](CCC(N)=O)NC(=O)[C@@H](NC(=O)[C@H](C)NC(=O)[C@@H]1CSSC[C@H](NC(=O)[C@@H](N)CCCCNC(=O)CC[C@H](NC(=O)CCCCCCCCCCCCCCCCCCC(=O)O)C(=O)O)C(=O)N[C@@H](CC(N)=O)C(=O)N[C@@H]([C@@H](C)O)C(=O)N[C@@H](C)C(=O)N[C@@H]([C@@H](C)O)C(=O)N1)[C@@H](C)O)C(=O)N1CCC[C@H]1C(=O)N[C@@H](CO)C(=O)N[C@@H](CO)C(=O)N[C@H](C(=O)N1CCC[C@H]1C(=O)N[C@H](C(=O)NCC(=O)N[C@@H](CO)C(=O)N[C@@H](CC(N)=O)C(=O)N[C@H](C(=O)N[C@@H](Cc1ccc(O)cc1)C(N)=O)[C@@H](C)O)C(C)C)[C@@H](C)O
notes: also called compound 62
B2: N^ε1-[(4S)-4-carboxy-4-[[(4S)-4-carboxy-4-(19-carboxynonadecanoylamino)butanoyl]amino]butanoyl]-[Glu14,Arg17,Pro21,Pro27,Arg34]-h-amylin (peptide)
peptide: K([γGlu-γGlu-C20 diacid])CNTATCATQRLAEFLRHSSPNFGAIPSSTNVGRNTY-NH2
modifications: disulfide 2-7; N-terminus assumed
SMILES: CC[C@H](C)[C@H](NC(=O)[C@H](C)NC(=O)CNC(=O)[C@H](Cc1ccccc1)NC(=O)[C@H](CC(N)=O)NC(=O)[C@@H]1CCCN1C(=O)[C@H](CO)NC(=O)[C@H](CO)NC(=O)[C@H](Cc1c[nH]cn1)NC(=O)[C@H](CCCNC(=N)N)NC(=O)[C@H](CC(C)C)NC(=O)[C@H](Cc1ccccc1)NC(=O)[C@H](CCC(=O)O)NC(=O)[C@H](C)NC(=O)[C@H](CC(C)C)NC(=O)[C@H](CCCNC(=N)N)NC(=O)[C@H](CCC(N)=O)NC(=O)[C@@H](NC(=O)[C@H](C)NC(=O)[C@@H]1CSSC[C@H](NC(=O)[C@@H](N)CCCCNC(=O)CC[C@H](NC(=O)CC[C@H](NC(=O)CCCCCCCCCCCCCCCCCCC(=O)O)C(=O)O)C(=O)O)C(=O)N[C@@H](CC(N)=O)C(=O)N[C@@H]([C@@H](C)O)C(=O)N[C@@H](C)C(=O)N[C@@H]([C@@H](C)O)C(=O)N1)[C@@H](C)O)C(=O)N1CCC[C@H]1C(=O)N[C@@H](CO)C(=O)N[C@@H](CO)C(=O)N[C@H](C(=O)N[C@@H](CC(N)=O)C(=O)N[C@H](C(=O)NCC(=O)N[C@@H](CCCNC(=N)N)C(=O)N[C@@H](CC(N)=O)C(=O)N[C@H](C(=O)N[C@@H](Cc1ccc(O)cc1)C(N)=O)[C@@H](C)O)C(C)C)[C@@H](C)O
notes: also called compound 88
B3: N^ε1-[(4S)-4-carboxy-4-[[(4S)-4-carboxy-4-(19-carboxynonadecanoylamino)butanoyl]amino]butanoyl]-[Glu14,Arg17,Pro21,Pro27,Arg35]-h-amylin (peptide)
peptide: K([γGlu-γGlu-C20 diacid])CNTATCATQRLAEFLRHSSPNFGAIPSSTNVGSRTY-NH2
modifications: disulfide 2-7; N-terminus assumed
SMILES: CC[C@H](C)[C@H](NC(=O)[C@H](C)NC(=O)CNC(=O)[C@H](Cc1ccccc1)NC(=O)[C@H](CC(N)=O)NC(=O)[C@@H]1CCCN1C(=O)[C@H](CO)NC(=O)[C@H](CO)NC(=O)[C@H](Cc1c[nH]cn1)NC(=O)[C@H](CCCNC(=N)N)NC(=O)[C@H](CC(C)C)NC(=O)[C@H](Cc1ccccc1)NC(=O)[C@H](CCC(=O)O)NC(=O)[C@H](C)NC(=O)[C@H](CC(C)C)NC(=O)[C@H](CCCNC(=N)N)NC(=O)[C@H](CCC(N)=O)NC(=O)[C@@H](NC(=O)[C@H](C)NC(=O)[C@@H]1CSSC[C@H](NC(=O)[C@@H](N)CCCCNC(=O)CC[C@H](NC(=O)CC[C@H](NC(=O)CCCCCCCCCCCCCCCCCCC(=O)O)C(=O)O)C(=O)O)C(=O)N[C@@H](CC(N)=O)C(=O)N[C@@H]([C@@H](C)O)C(=O)N[C@@H](C)C(=O)N[C@@H]([C@@H](C)O)C(=O)N1)[C@@H](C)O)C(=O)N1CCC[C@H]1C(=O)N[C@@H](CO)C(=O)N[C@@H](CO)C(=O)N[C@H](C(=O)N[C@@H](CC(N)=O)C(=O)N[C@H](C(=O)NCC(=O)N[C@@H](CO)C(=O)N[C@@H](CCCNC(=N)N)C(=O)N[C@H](C(=O)N[C@@H](Cc1ccc(O)cc1)C(N)=O)[C@@H](C)O)C(C)C)[C@@H](C)O
notes: also called compound 89
B4: N^ε1-[(4S)-4-carboxy-4-[[(4S)-4-carboxy-4-(19-carboxynonadecanoylamino)butanoyl]amino]butanoyl]-[Arg17,Pro21,Pro27,His34]-h-amylin (peptide)
peptide: K([γGlu-γGlu-C20 diacid])CNTATCATQRLANFLRHSSPNFGAIPSSTNVGHNTY-NH2
modifications: disulfide 2-7; N-terminus assumed
SMILES: CC[C@H](C)[C@H](NC(=O)[C@H](C)NC(=O)CNC(=O)[C@H](Cc1ccccc1)NC(=O)[C@H](CC(N)=O)NC(=O)[C@@H]1CCCN1C(=O)[C@H](CO)NC(=O)[C@H](CO)NC(=O)[C@H](Cc1c[nH]cn1)NC(=O)[C@H](CCCNC(=N)N)NC(=O)[C@H](CC(C)C)NC(=O)[C@H](Cc1ccccc1)NC(=O)[C@H](CC(N)=O)NC(=O)[C@H](C)NC(=O)[C@H](CC(C)C)NC(=O)[C@H](CCCNC(=N)N)NC(=O)[C@H](CCC(N)=O)NC(=O)[C@@H](NC(=O)[C@H](C)NC(=O)[C@@H]1CSSC[C@H](NC(=O)[C@@H](N)CCCCNC(=O)CC[C@H](NC(=O)CC[C@H](NC(=O)CCCCCCCCCCCCCCCCCCC(=O)O)C(=O)O)C(=O)O)C(=O)N[C@@H](CC(N)=O)C(=O)N[C@@H]([C@@H](C)O)C(=O)N[C@@H](C)C(=O)N[C@@H]([C@@H](C)O)C(=O)N1)[C@@H](C)O)C(=O)N1CCC[C@H]1C(=O)N[C@@H](CO)C(=O)N[C@@H](CO)C(=O)N[C@H](C(=O)N[C@@H](CC(N)=O)C(=O)N[C@H](C(=O)NCC(=O)N[C@@H](Cc1c[nH]cn1)C(=O)N[C@@H](CC(N)=O)C(=O)N[C@H](C(=O)N[C@@H](Cc1ccc(O)cc1)C(N)=O)[C@@H](C)O)C(C)C)[C@@H](C)O
notes: also called compound 86
B5: N^ε1N^ε1-[(4S)-4-carboxy-4-(19-carboxynonadecanoylamino)butanoyl]-[His14,Arg17,Pro21,Pro27,Pro34]-h-amylin (peptide)
peptide: K([γGlu-C20 diacid])CNTATCATQRLAHFLRHSSPNFGAIPSSTNVGPNTY-NH2
modifications: disulfide 2-7; N-terminus assumed
SMILES: CC[C@H](C)[C@H](NC(=O)[C@H](C)NC(=O)CNC(=O)[C@H](Cc1ccccc1)NC(=O)[C@H](CC(N)=O)NC(=O)[C@@H]1CCCN1C(=O)[C@H](CO)NC(=O)[C@H](CO)NC(=O)[C@H](Cc1c[nH]cn1)NC(=O)[C@H](CCCNC(=N)N)NC(=O)[C@H](CC(C)C)NC(=O)[C@H](Cc1ccccc1)NC(=O)[C@H](Cc1c[nH]cn1)NC(=O)[C@H](C)NC(=O)[C@H](CC(C)C)NC(=O)[C@H](CCCNC(=N)N)NC(=O)[C@H](CCC(N)=O)NC(=O)[C@@H](NC(=O)[C@H](C)NC(=O)[C@@H]1CSSC[C@H](NC(=O)[C@@H](N)CCCCNC(=O)CC[C@H](NC(=O)CCCCCCCCCCCCCCCCCCC(=O)O)C(=O)O)C(=O)N[C@@H](CC(N)=O)C(=O)N[C@@H]([C@@H](C)O)C(=O)N[C@@H](C)C(=O)N[C@@H]([C@@H](C)O)C(=O)N1)[C@@H](C)O)C(=O)N1CCC[C@H]1C(=O)N[C@@H](CO)C(=O)N[C@@H](CO)C(=O)N[C@H](C(=O)N[C@@H](CC(N)=O)C(=O)N[C@H](C(=O)NCC(=O)N1CCC[C@H]1C(=O)N[C@@H](CC(N)=O)C(=O)N[C@H](C(=O)N[C@@H](Cc1ccc(O)cc1)C(N)=O)[C@@H](C)O)C(C)C)[C@@H](C)O
notes: also called compound 67
B6: N^ε1-[(4S)-4-carboxy-4-(19-carboxynonadecanoylamino)butanoyl]-[His14,Arg17,Pro21,Pro27]-h-amylin (peptide)
peptide: K([γGlu-C20 diacid])CNTATCATQRLAHFLRHSSPNFGAIPSSTNVGSNTY-NH2
modifications: disulfide 2-7; N-terminus assumed
SMILES: CC[C@H](C)[C@H](NC(=O)[C@H](C)NC(=O)CNC(=O)[C@H](Cc1ccccc1)NC(=O)[C@H](CC(N)=O)NC(=O)[C@@H]1CCCN1C(=O)[C@H](CO)NC(=O)[C@H](CO)NC(=O)[C@H](Cc1c[nH]cn1)NC(=O)[C@H](CCCNC(=N)N)NC(=O)[C@H](CC(C)C)NC(=O)[C@H](Cc1ccccc1)NC(=O)[C@H](Cc1c[nH]cn1)NC(=O)[C@H](C)NC(=O)[C@H](CC(C)C)NC(=O)[C@H](CCCNC(=N)N)NC(=O)[C@H](CCC(N)=O)NC(=O)[C@@H](NC(=O)[C@H](C)NC(=O)[C@@H]1CSSC[C@H](NC(=O)[C@@H](N)CCCCNC(=O)CC[C@H](NC(=O)CCCCCCCCCCCCCCCCCCC(=O)O)C(=O)O)C(=O)N[C@@H](CC(N)=O)C(=O)N[C@@H]([C@@H](C)O)C(=O)N[C@@H](C)C(=O)N[C@@H]([C@@H](C)O)C(=O)N1)[C@@H](C)O)C(=O)N1CCC[C@H]1C(=O)N[C@@H](CO)C(=O)N[C@@H](CO)C(=O)N[C@H](C(=O)N[C@@H](CC(N)=O)C(=O)N[C@H](C(=O)NCC(=O)N[C@@H](CO)C(=O)N[C@@H](CC(N)=O)C(=O)N[C@H](C(=O)N[C@@H](Cc1ccc(O)cc1)C(N)=O)[C@@H](C)O)C(C)C)[C@@H](C)O
notes: also called compound 70

Numbered stars: 1 amine (or outer) side, 2 acyl side, 3 side chain; on linkers, the order of the positions; unused ones are H or OH. Bridge positions count the residues as written; N and C are the ends. Side chains are listed from the residue outwards. Ends that are not written are not given here. * marks the point of attachment. C20 diacid = O=C(O)CCCCCCCCCCCCCCCCCCC(=O)*; γGlu = O=C(O)[C@H](CCC(=O)[*:2])N[*:1]

The target of this test is T1, human calcitonin receptor. Briefly: cell-based or functional assay.
As for B1, the “hCTR funct. EC50” value came out at 0.539 nM.

As for B2, the “hCTR funct. EC50” value is 6.55 nM. Turning to B3, the “hCTR funct. EC50” value came out at 11.2 nM. Turning to B4, the “hCTR funct. EC50” value was 19.2 nM. As for B5, the “hCTR funct. EC50” value turned out to be 0.354 nM. Take B6: the “hCTR funct. EC50” value was found to be 0.715 nM.

The record behind these values is patent US20140087995A1 (published 2014).
